{
  "source": "the RNAGym collection of RNA variant scans (doi:10.7554/elife.80360)",
  "parents": {"B1": {"name": "CPEB3 Ribozyme (parent)", "chain": "GGGGGCCACAGCAGAAGCGUUCACGUCGCGGCCCCUGUCAGAUUCUGGUGAAUCUGCGAAUUCUGCUGU"}, "B2": {"name": "HDV Ribozyme (parent)", "chain": "GGCCGGCAUGGUCCCAGCCUCCUCGCUGGCGCCGGCUGGGCAACAUUCCGAGGGGACCGUCCCCUCGGUAAUGGCGAAUGGGACCCA"}},
  "data": [
    {"variants_of": "B1", "experiment": "self-cleavage, relative activity (ratio to wild type); higher = more cleavage; co-transcriptional", "values": [
      {"variant": "G1C G14C", "self-cleavage": 0.152},
      {"variant": "G1A G2A", "self-cleavage": 0.302},
      {"variant": "G1A G2C", "self-cleavage": 0.265},
      {"variant": "G1A G2U", "self-cleavage": 0.332},
      {"variant": "G1A G30U", "self-cleavage": 0.0869},
      {"variant": "G1C U21A", "self-cleavage": 0.246},
      {"variant": "G1C G2C", "self-cleavage": 0.67},
      {"variant": "G1C G2U", "self-cleavage": 0.142},
      {"variant": "G1C G5C", "self-cleavage": 0.15},
      {"variant": "G1C G5A", "self-cleavage": 0.272},
      {"variant": "G1C C24U", "self-cleavage": 0.203},
      {"variant": "G1C C24G", "self-cleavage": 0.118},
      {"variant": "G1C C66G", "self-cleavage": 0.248},
      {"variant": "G1A A23C", "self-cleavage": 0.0884},
      {"variant": "G1A A23G", "self-cleavage": 0.139},
      {"variant": "G1A C12U", "self-cleavage": 0.0887},
      {"variant": "G1A U38G", "self-cleavage": 0.0274},
      {"variant": "G1A U38A", "self-cleavage": 0.0918},
      {"variant": "G1A C54U", "self-cleavage": 0.0835},
      {"variant": "G1A A10G", "self-cleavage": 0.115},
      {"variant": "G1A A10U", "self-cleavage": 0.0492},
      {"variant": "G1A C66U", "self-cleavage": 0.0966},
      {"variant": "G1A C66A", "self-cleavage": 0.0751},
      {"variant": "G1C G56U", "self-cleavage": 0.224},
      {"variant": "G1A C22G", "self-cleavage": 0.0704},
      {"variant": "G1A C22A", "self-cleavage": 0.0619},
      {"variant": "G1A A60G", "self-cleavage": 0.0623},
      {"variant": "G1A A60U", "self-cleavage": 0.107},
      {"variant": "G1A U43G", "self-cleavage": 0.0723},
      {"variant": "G1A U43A", "self-cleavage": 0.0552},
      {"variant": "G1A U43C", "self-cleavage": 0.0436},
      {"variant": "G1A U62G", "self-cleavage": 0.0371},
      {"variant": "G1A U62C", "self-cleavage": 0.033},
      {"variant": "G1C A42U", "self-cleavage": 0.2},
      {"variant": "G1C G19C", "self-cleavage": 0.126},
      {"variant": "G1C G19U", "self-cleavage": 0.166},
      {"variant": "G1C A51G", "self-cleavage": 0.18},
      {"variant": "G1C G37A", "self-cleavage": 0.157},
      {"variant": "G1A G3A", "self-cleavage": 0.107},
      {"variant": "G1A G3U", "self-cleavage": 0.0455},
      {"variant": "G1A G19A", "self-cleavage": 0.0657},
      {"variant": "G1A G19C", "self-cleavage": 0.0333},
      {"variant": "G1A G19U", "self-cleavage": 0.0319},
      {"variant": "G1C G65A", "self-cleavage": 0.134},
      {"variant": "G1C G65C", "self-cleavage": 0.174},
      {"variant": "G1A G48C", "self-cleavage": 0.142},
      {"variant": "G1A G41A", "self-cleavage": 0.0513},
      {"variant": "G1C G30U", "self-cleavage": 0.162},
      {"variant": "G1C C29A", "self-cleavage": 0.168},
      {"variant": "G1A A16C", "self-cleavage": 0.028},
      {"variant": "G1A A16U", "self-cleavage": 0.0347},
      {"variant": "G1C G4U", "self-cleavage": 0.205},
      {"variant": "G1C C7U", "self-cleavage": 0.172},
      {"variant": "G1C G41U", "self-cleavage": 0.193},
      {"variant": "G1A C35G", "self-cleavage": 0.053},
      {"variant": "G1A G4U", "self-cleavage": 0.0804},
      {"variant": "G1A G28A", "self-cleavage": 0.0534},
      {"variant": "G1C G50C", "self-cleavage": 0.145},
      {"variant": "G1C G50A", "self-cleavage": 0.224},
      {"variant": "G1A A51C", "self-cleavage": 0.114},
      {"variant": "G1A A51G", "self-cleavage": 0.0779},
      {"variant": "G1A G31U", "self-cleavage": 0.0837},
      {"variant": "G1A A42U", "self-cleavage": 0.105},
      {"variant": "G1A A42C", "self-cleavage": 0.106},
      {"variant": "G1C G28A", "self-cleavage": 0.102},
      {"variant": "G1A C39A", "self-cleavage": 0.0683},
      {"variant": "G1A C39G", "self-cleavage": 0.0386},
      {"variant": "G1A U61A", "self-cleavage": 0.0967},
      {"variant": "G1A U61G", "self-cleavage": 0.15},
      {"variant": "G1C U36G", "self-cleavage": 0.297},
      {"variant": "G1A G37A", "self-cleavage": 0.0641},
      {"variant": "G1A U21C", "self-cleavage": 0.0967},
      {"variant": "G1C A8G", "self-cleavage": 0.205},
      {"variant": "G1C C63G", "self-cleavage": 0.201},
      {"variant": "G1C U26A", "self-cleavage": 0.165},
      {"variant": "G1C C39A", "self-cleavage": 0.174},
      {"variant": "G1A C45A", "self-cleavage": 0.0944},
      {"variant": "G1C A16C", "self-cleavage": 0.161},
      {"variant": "G1A U67G", "self-cleavage": 0.0812},
      {"variant": "G1A U67A", "self-cleavage": 0.121},
      {"variant": "G1A U64C", "self-cleavage": 0.0762},
      {"variant": "G1A C29A", "self-cleavage": 0.061},
      {"variant": "G1C U38A", "self-cleavage": 0.267},
      {"variant": "G1C C18G", "self-cleavage": 0.0551},
      {"variant": "G1C C18A", "self-cleavage": 0.035},
      {"variant": "G1C C18U", "self-cleavage": 0.167},
      {"variant": "G1C G48A", "self-cleavage": 0.204},
      {"variant": "G1C G48C", "self-cleavage": 0.215},
      {"variant": "G1A U53C", "self-cleavage": 0.0532},
      {"variant": "G1A U53A", "self-cleavage": 0.0419},
      {"variant": "G1A U53G", "self-cleavage": 0.0671},
      {"variant": "G1C C9A", "self-cleavage": 0.251},
      {"variant": "G1A A8G", "self-cleavage": 0.0246},
      {"variant": "G1A A8C", "self-cleavage": 0.102},
      {"variant": "G1A U55G", "self-cleavage": 0.0876},
      {"variant": "G1C C32G", "self-cleavage": 0.148},
      {"variant": "G1A G25U", "self-cleavage": 0.076},
      {"variant": "G1A G25A", "self-cleavage": 0.0488},
      {"variant": "G1C U20A", "self-cleavage": 0.0802},
      {"variant": "G1A C33A", "self-cleavage": 0.0757},
      {"variant": "G1A U44G", "self-cleavage": 0.0722},
      {"variant": "G1A C27G", "self-cleavage": 0.0668},
      {"variant": "G1C C22U", "self-cleavage": 0.0706},
      {"variant": "G1C A60U", "self-cleavage": 0.179},
      {"variant": "G1A C7U", "self-cleavage": 0.0863},
      {"variant": "G1A C7A", "self-cleavage": 0.155},
      {"variant": "G1A G17C", "self-cleavage": 0.0672},
      {"variant": "G1C A10C", "self-cleavage": 0.23},
      {"variant": "G1C A10U", "self-cleavage": 0.209},
      {"variant": "G1C C57U", "self-cleavage": 0.07},
      {"variant": "G1A U49C", "self-cleavage": 0.0571},
      {"variant": "G1C A40U", "self-cleavage": 0.195},
      {"variant": "G1C A15U", "self-cleavage": 0.229},
      {"variant": "G1A G14U", "self-cleavage": 0.0964},
      {"variant": "G1A G58U", "self-cleavage": 0.0885},
      {"variant": "G1A G50C", "self-cleavage": 0.115},
      {"variant": "G1A A40G", "self-cleavage": 0.0657},
      {"variant": "G1C C54A", "self-cleavage": 0.272},
      {"variant": "G1C C54U", "self-cleavage": 0.237},
      {"variant": "G1C G3C", "self-cleavage": 0.0906},
      {"variant": "G1A G11C", "self-cleavage": 0.0395}
    ]},
    {"variants_of": "B2", "experiment": "self-cleavage, relative activity (ratio to wild type); higher = more cleavage; co-transcriptional", "values": [
      {"variant": "C84U A87U", "self-cleavage": 0.946},
      {"variant": "C84U A87C", "self-cleavage": 0.749},
      {"variant": "C86U A87C", "self-cleavage": 0.926},
      {"variant": "C86U A87G", "self-cleavage": 0.942},
      {"variant": "A83G C85G", "self-cleavage": 1.12},
      {"variant": "A83G C85A", "self-cleavage": 0.677},
      {"variant": "A87C", "self-cleavage": 1.01},
      {"variant": "A87U", "self-cleavage": 1.03},
      {"variant": "A87G", "self-cleavage": 0.984},
      {"variant": "A83U C85G", "self-cleavage": 0.208},
      {"variant": "A83U C85A", "self-cleavage": 0.237},
      {"variant": "A83G C86A", "self-cleavage": 0.941},
      {"variant": "A83G C86U", "self-cleavage": 1.08},
      {"variant": "A83G C86G", "self-cleavage": 0.807},
      {"variant": "A83G C84G", "self-cleavage": 0.95},
      {"variant": "C85A C86U", "self-cleavage": 1.05},
      {"variant": "C85A C86G", "self-cleavage": 0.791},
      {"variant": "C84G A87U", "self-cleavage": 0.842},
      {"variant": "C84U C86U", "self-cleavage": 0.604},
      {"variant": "C84U C86G", "self-cleavage": 0.907},
      {"variant": "C84G C85G", "self-cleavage": 0.26},
      {"variant": "C85G C86U", "self-cleavage": 0.858},
      {"variant": "C84A C86A", "self-cleavage": 0.712},
      {"variant": "A83U A87C", "self-cleavage": 0.751},
      {"variant": "A83U A87U", "self-cleavage": 0.507},
      {"variant": "A83U A87G", "self-cleavage": 0.531},
      {"variant": "C86A A87G", "self-cleavage": 0.804},
      {"variant": "C86A A87C", "self-cleavage": 0.855},
      {"variant": "C84A C85G", "self-cleavage": 0.519},
      {"variant": "C86G A87C", "self-cleavage": 1.04},
      {"variant": "C85G A87G", "self-cleavage": 0.919},
      {"variant": "C84G C86A", "self-cleavage": 0.764},
      {"variant": "C84G C86U", "self-cleavage": 0.675},
      {"variant": "C85A A87U", "self-cleavage": 1.06},
      {"variant": "C85A A87C", "self-cleavage": 0.862},
      {"variant": "C84A A87G", "self-cleavage": 0.61},
      {"variant": "C85U A87C", "self-cleavage": 0.933},
      {"variant": "C85U A87G", "self-cleavage": 0.963},
      {"variant": "C84U C85G", "self-cleavage": 0.923},
      {"variant": "C84U C85A", "self-cleavage": 0.877},
      {"variant": "C84U C85U", "self-cleavage": 0.604},
      {"variant": "C84U", "self-cleavage": 0.804},
      {"variant": "C84G", "self-cleavage": 0.688},
      {"variant": "C84A", "self-cleavage": 0.895},
      {"variant": "C85U C86U", "self-cleavage": 0.895},
      {"variant": "A83U", "self-cleavage": 0.523}
    ]}
  ]
}
